This note sets out measurements from patent US20150004129A1.

Test [1] has as its target Flag-CD40L (AA 116 to 261) (human) (UniProt P29965). The experiment in a line: competitive ELISA; receptor/Fc coated, sCD40L at constant concentration, competitor titrated. For orientation: In an ELISA, binding on a coated surface is turned into a signal by an enzyme label.
For test [2] the target is unchanged. The experiment in a line: competitive ELISA; receptor/Fc coated, sCD40L at constant concentration, competitor titrated with 1 ug/ml protein A.
In test [3] the target is Flag-FasL (soluble FasL) (UniProt P48023). The experiment in a line: cell-based or functional assay.
Test [4] shares this target. The experiment in a line: BIAcore; Flag-FasL captured on immobilised M2 anti-Flag antibody.
The target is the same in test [5]. The experiment in a line: BIAcore; Flag-FasL captured on immobilised M2 anti-Flag antibody, receptor fusion protein injected.
Test [6] shares this target. The experiment in a line: BIAcore; 7 ul of 2.5 ug/ml Flag-FasL over immobilised M2 antibody.
The target of another test is Flag-TRAIL (UniProt P50591). The experiment in a line: BIAcore; 7 ul of 2.5 ug/ml Flag-TRAIL over immobilised M2 antibody. (Surface plasmon resonance follows binding to a sensor surface in real time, without labels.)

Sequence of UniProt P48023 (P48023 other isoform, or with tags, fused parts or gaps): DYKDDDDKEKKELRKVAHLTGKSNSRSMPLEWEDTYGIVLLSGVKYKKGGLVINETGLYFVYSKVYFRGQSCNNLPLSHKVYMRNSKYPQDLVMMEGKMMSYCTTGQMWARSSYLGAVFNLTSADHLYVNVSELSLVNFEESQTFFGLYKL
Sequence of UniProt P29965 (P29965 other isoform, or with tags, fused parts or gaps): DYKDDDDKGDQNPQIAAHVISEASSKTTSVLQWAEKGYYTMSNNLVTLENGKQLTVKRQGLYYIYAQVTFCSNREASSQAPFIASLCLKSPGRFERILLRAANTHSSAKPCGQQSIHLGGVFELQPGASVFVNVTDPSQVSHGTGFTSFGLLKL

On to “CD40:COMP fusion protein (from UniProt P25942 1-193) (receptor)”, for which the fold increase in the affinity against CD40:Fc in test [1] was found to be 30 fold. On to “CD40:Fc cross-linked with protein A (from UniProt P25942 1-193)”, for which the fold increase in the affinity against CD40:Fc in test [2] amounted to 8 fold. In the test with Flag-FasL (soluble FasL) [3], “Fas:COMP fusion protein (from UniProt P25445 26-170) (receptor)” returned an inhibitory activity against sFasL-mediated lysis, fold against Fas:Fc of 10 to 20 fold. This substance yielded a fold lower dissociation constant than Fas:Fc in the test with Flag-FasL (soluble FasL) [4] of 8 to 9 fold. Besides, the Kd with Flag-FasL (soluble FasL) [5] worked out at 0.77 nM. Consider “Fas:Fc fusion protein (from UniProt P25445 26-170)”, for which the protection of A20 cells exposed to a lethal dose of soluble FasL (cytotoxicity test) in the test with Flag-FasL (soluble FasL) [3] was < 50%. With M2 anti-Flag monoclonal antibody, the units bound (BIAcore) with Flag-FasL (soluble FasL) [6] and in the test with Flag-TRAIL was 100 to 150 units in each case.

The Kd is the equilibrium constant for the complex coming apart. The low end stands for a tighter complex, the high end for a looser complex.
